According to US20230242675A1 (SHANGHAI EPIMAB BIOTHERAPEUTICS, published 2023):
Changes are numbered by the printed parent chain. In names and notes the source's numbering stands. Values belong to the binder of their own block, whether it stands above or below them.

Legend:
[1] = target: T1, human PD-L1/His fusion protein (human, UniProt Q9NZQ7 19-239); test: BLI off-rate; test group 1
Description: (§1) Briefly, antibodies were characterized for affinities and binding kinetics by Octet®RED96 biolayer interferometry (Pall ForteBio LLC). Antibodies were captured by Anti-hIgG Fc Capture (AHC) Biosensors (Pall) at a concentration of 100 nM for 30 seconds. Sensors were then dipped into running buffer (1×pH 7.2 PBS, 0.05% Tween 20, 0.1% BSA) for 60 seconds to check baseline. Binding was measured by dipping sensors into a single concentration of recombinant human PD-L1/His fusion protein (Novoprotein). Dissociation was followed by dipping sensors into running buffer for 1200 seconds. The association and dissociation curves were fitted to a 1:1 Langmuir binding model using ForteBio Data Analysis software (Pall). […] The off-rate ratio serves as a data normalization. Accordingly, in each test group, the off-rate ratios of the humanized antibodies can be compared with that of the chimeric antibody, and the off-rate ratios of each of the humanized antibodies can be compared to one another within all test groups.

[2] = target: T1, human PD-L1/His fusion protein; test: BLI Octet RED96, antibody on AHC sensor, single conc. PD-L1/His; test group 1
Description: as §1

[3] = target: T1, human PD-L1/His fusion protein; test: BLI Octet RED96, antibody on AHC sensor, single conc. PD-L1/His; test group 2
Description: as §1

[4] = target: T1, human PD-L1/His fusion protein; test: BLI off-rate; test group 2
Description: as §1

[5] = target: T1, human PD-L1/His fusion protein; test: BLI Octet RED96, antibody on AHC sensor, single conc. PD-L1/His; test group 3
Description: as §1

[6] = target: T1, human PD-L1/His fusion protein; test: BLI off-rate; test group 3
Description: as §1

T1 sequence (Q9NZQ7 19-239 limits assumed): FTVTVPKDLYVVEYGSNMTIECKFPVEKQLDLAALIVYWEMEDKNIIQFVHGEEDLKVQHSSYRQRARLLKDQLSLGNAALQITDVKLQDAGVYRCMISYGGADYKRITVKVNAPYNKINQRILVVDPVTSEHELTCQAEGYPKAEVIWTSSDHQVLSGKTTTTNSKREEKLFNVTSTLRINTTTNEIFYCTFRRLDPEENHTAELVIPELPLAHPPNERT

B1: HuEM0005-90-5 (antibody, human IgG1, V domains shown)
VH: EVQLVQSGAEVKKPGASVKVSCKASGYTFTSHSINWVRQATGQGLEWMGYMYIGNGYTEYNEKFKGRVTLTSNTSISTAYMELSSLRSEDTAVYYCAKITPVVAPYVMDYWGQGTSVTVSS
VL: DIQMTQSPSFLSASVGDRVTITCKASQDVGTAVAWYQQKPGKAPKLLIYWASTRHTGVPSRFSGSGSGTEFTLTISSLQPEDFATYYCQQYSSYPYTFGQGTKLEIK
Off-Rate Ratio to that of EM0005-90c [1]: 107%
koff [2]: 0.00027 s⁻¹

B13: HuEM0005-87-1 (antibody, human IgG1, V domains shown)
VH: EVQLVQSGAEVKKPGASVKVSCKASGYTFTDYYINWVRQAPGQGLEWMGETIPNTGGTTYNQKFKARVTMTVDTSTSTVYMELSSLRSEDTAVYYCARYQSGSPFAYWGQGTTVTVSS
VL: DIVMTQSPDSLAVSLGERATINCKASQNVGTAVAWYQQKPGQPPKLLIYSASNRYTGVPDRFTGSGSGTDFTLTISSLQAEDVAVYYCQQHYSTPYTFGGGTKLEIK
notes: also called HuEM0005-87-l
Off-Rate Ratio to that of EM0005-87c [1]: 64%
koff [2]: 0.000937 s⁻¹

B14: HuEM0005-87-5 (antibody, human IgG1, V domains shown)
VH: B13 VH with T28S, R38K, M48I, R67K, V68A, M70L, V72R, T74K, V79A, S84K
VL: B13 VL
Off-Rate Ratio to that of EM0005-87c [1]: 64%
koff [2]: 0.000947 s⁻¹

B15: HuEM0005-87-18 (antibody, human IgG1, V domains shown)
VH: B13 VH with M48I, M70L, T74K
VL: EIVMTQSPATLSVSPGERATLSCKASQNVGTAVAWYQQKPGQAPRLLIYSASNRYTGVPDRFTGSGSGTEFTLTISSLQSEDFAVYYCQQHYSTPYTFGGGTKLEIK
koff [5]: 0.00101 s⁻¹
Off-Rate Ratio to that of EM0005-87c [6]: 75%

B16: HuEM0005-87-4 (antibody, human IgG1, V domains shown)
VH: B13 VH with T28S, M48I, R67K, V68A, M70L, T74K, V79A
VL: B13 VL
Off-Rate Ratio to that of EM0005-87c [1]: 52%
koff [2]: 0.000768 s⁻¹

B17: HuEM0005-87-2 (antibody, human IgG1, V domains shown)
VH: B13 VH with M70L
VL: B13 VL
Off-Rate Ratio to that of EM0005-87c [1]: 54%
koff [2]: 0.000797 s⁻¹

B19: HuEM0005-87-8 (antibody, human IgG1, V domains shown)
VH: B13 VH with M48I, M70L, T74K
VL: B15 VL with V58I, D60A, T63S
koff [3]: 0.000844 s⁻¹
Off-Rate Ratio to that of EM0005-87c [4]: 81%

B20: HuEM0005-87-9 (antibody, human IgG1, V domains shown)
VH: B13 VH with T28S, M48I, R67K, V68A, M70L, T74K, V79A
VL: B15 VL with V58I, D60A, T63S
koff [3]: 0.000878 s⁻¹
Off-Rate Ratio to that of EM0005-87c [4]: 84%

B21: HuEM0005-87-6 (antibody, human IgG1, V domains shown)
VH: B13 VH
VL: B15 VL with V58I, D60A, T63S
Off-Rate Ratio to that of EM0005-87c [1]: 68%
koff [2]: 0.000998 s⁻¹

B22: HuEM0005-87-14 (antibody, human IgG1, V domains shown)
VH: B13 VH with T28S, M48I, R67K, V68A, M70L, T74K, V79A
VL: B15 VL with D60A, T63S
koff [5]: 0.00108 s⁻¹
Off-Rate Ratio to that of EM0005-87c [6]: 80%

B23: HuEM0005-87-11 (antibody, human IgG1, V domains shown)
VH: B13 VH
VL: B15 VL with D60A, T63S
notes: also called HuEM0005-87-l l
koff [3]: 0.000769 s⁻¹
Off-Rate Ratio to that of EM0005-87c [4]: 74%

B24: HuEM0005-87-12 (antibody, human IgG1, V domains shown)
VH: B13 VH with M70L
VL: B15 VL with D60A, T63S
koff [3]: 0.000798 s⁻¹
Off-Rate Ratio to that of EM0005-87c [4]: 77%

B25: HuEM0005-87-10 (antibody, human IgG1, V domains shown)
VH: B13 VH with T28S, R38K, M48I, R67K, V68A, M70L, V72R, T74K, V79A, S84K
VL: B15 VL with V58I, D60A, T63S
koff [3]: 0.000994 s⁻¹
Off-Rate Ratio to that of EM0005-87c [4]: 96%

B26: HuEM0005-87-7 (antibody, human IgG1, V domains shown)
VH: B13 VH with M70L
VL: B15 VL with V58I, D60A, T63S
koff [3]: 0.000709 s⁻¹
Off-Rate Ratio to that of EM0005-87c [4]: 68%

B28: HuEM0005-87-13 (antibody, human IgG1, V domains shown)
VH: B13 VH with M48I, M70L, T74K
VL: B15 VL with D60A, T63S
koff [5]: 0.001 s⁻¹
Off-Rate Ratio to that of EM0005-87c [6]: 74%

B30: HuEM0005-87-3 (antibody, human IgG1, V domains shown)
VH: B13 VH with M48I, M70L, T74K
VL: B13 VL
Off-Rate Ratio to that of EM0005-87c [1]: 63%
koff [2]: 0.000926 s⁻¹

The remaining lines, values ahead:

koff [3]: 0.000349 s⁻¹
Off-Rate Ratio to that of EM0005-90c [4]: 102%
B2: HuEM0005-90-8 (antibody, human IgG1, V domains shown)
VH: B1 VH with A24T, M48I, V68A
VL: B1 VL

Off-Rate Ratio to that of EM0005-90c [1]: 90%
koff [2]: 0.000227 s⁻¹
B3: HuEM0005-90-2 (antibody, human IgG1, V domains shown)
VH: B1 VH with M48I, V68A
VL: B1 VL with M4L

koff [3]: 0.000342 s⁻¹
Off-Rate Ratio to that of EM0005-90c [4]: 100%
B4: HuEM0005-90-12 (antibody, human IgG1, V domains shown)
VH: B1 VH with A24T, M48I, V68A
VL: B1 VL with Q3V, E70D

Off-Rate Ratio to that of EM0005-90c [1]: 97%
koff [2]: 0.000246 s⁻¹
B5: HuEM0005-90-4 (antibody, human IgG1, V domains shown)
VH: B1 VH with A24T, M48I, V68A
VL: B1 VL with M4L

Off-Rate Ratio to that of EM0005-90c [1]: 100%
koff [2]: 0.000254 s⁻¹
B6: HuEM0005-90-6 (antibody, human IgG1, V domains shown)
VH: B1 VH with M48I, V68A
VL: B1 VL

koff [3]: 0.000373 s⁻¹
Off-Rate Ratio to that of EM0005-90c [4]: 109%
B7: HuEM0005-90-9 (antibody, human IgG1, V domains shown)
VH: B1 VH
VL: B1 VL with Q3V, E70D

Off-Rate Ratio to that of EM0005-90c [1]: 102%
koff [2]: 0.000259 s⁻¹
B8: HuEM0005-90-1 (antibody, human IgG1, V domains shown)
VH: B1 VH
VL: B1 VL with M4L
notes: measured without the G55A change

koff [3]: 0.000414 s⁻¹
Off-Rate Ratio to that of EM0005-90c [4]: 121%
B9: HuEM0005-90-11 (antibody, human IgG1, V domains shown)
VH: B1 VH with A24T, L70M
VL: B1 VL with Q3V, E70D

koff [3]: 0.00046 s⁻¹
Off-Rate Ratio to that of EM0005-90c [4]: 135%
B10: HuEM0005-90-7 (antibody, human IgG1, V domains shown)
VH: B1 VH with A24T, L70M
VL: B1 VL

Off-Rate Ratio to that of EM0005-90c [1]: 120%
koff [2]: 0.000304 s⁻¹
B11: HuEM0005-90-3 (antibody, human IgG1, V domains shown)
VH: B1 VH with A24T, L70M
VL: B1 VL with M4L

koff [3]: 0.00031 s⁻¹
Off-Rate Ratio to that of EM0005-90c [4]: 91%
B12: HuEM0005-90-10 (antibody, human IgG1, V domains shown)
VH: B1 VH with M48I, V68A
VL: B1 VL with Q3V, E70D

koff [5]: 0.000888 s⁻¹
Off-Rate Ratio to that of EM0005-87c [6]: 66%
B18: HuEM0005-87-17 (antibody, human IgG1, V domains shown)
VH: B13 VH with M70L
VL: B15 VL

koff [5]: 0.00129 s⁻¹
Off-Rate Ratio to that of EM0005-87c [6]: 96%
B27: HuEM0005-87-15 (antibody, human IgG1, V domains shown)
VH: B13 VH with T28S, R38K, M48I, R67K, V68A, M70L, V72R, T74K, V79A, S84K
VL: B15 VL with D60A, T63S

koff [5]: 0.000932 s⁻¹
Off-Rate Ratio to that of EM0005-87c [6]: 69%
B29: HuEM0005-87-16 (antibody, human IgG1, V domains shown)
VH: B13 VH
VL: B15 VL
